Where “and” joins values, the source holds several entries; their conditions need not be identical. Equal entries are not always repeated.
Assays:
[1] = molecular target: T1, human IL-4Rα HIS FLAG (in house HEK-EBNA derived) (human, biotinylated where used as the labelled partner in the DELFIA assay); experiment: SPR (BIAcore 2000), value in parentheses under the mean, taken as a single determination
T1 construct: also called HuIL-4Rα; Human IL4-Rα/FLAG/HIS tag
T1 chain: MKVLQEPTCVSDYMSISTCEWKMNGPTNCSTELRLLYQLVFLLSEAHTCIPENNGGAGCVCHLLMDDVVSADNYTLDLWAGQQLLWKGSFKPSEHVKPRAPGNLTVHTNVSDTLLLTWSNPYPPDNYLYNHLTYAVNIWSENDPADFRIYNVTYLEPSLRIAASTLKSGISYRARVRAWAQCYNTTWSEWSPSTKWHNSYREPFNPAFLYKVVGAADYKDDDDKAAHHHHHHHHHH
Experimental: (§1) In brief, Protein G′ (Sigma Aldrich, P4689) was covalently coupled to the surface of a CM5 sensor chip using standard amine coupling reagents according to manufacturer's instructions (BIAcore). This Protein G′ surface was used to capture a constant amount of purified anti-IL4R• antibodies or isotype control via the Fc domain. Human or cynomolgus IL-4R• HIS FLAG prepared in HBS-EP buffer (BIAcore AB), at a range of concentrations, between 100 nM and 0.2 nM, were passed over the sensor chip surface. […] The resulting sensorgrams were evaluated using BIA evaluation 4.1 software and fitted to 1:1 Langmuir binding model, to provide the relative binding data. The experiments were performed over the course of at least three separate days to calculate an average monovalent affinity.

[2] = molecular target: T2, cynomolgus IL-4Rα HIS FLAG (cynomolgus); experiment: as above
T2 construct: also called Cyno IL4Rα HIS FLAG; not shown: HIS and FLAG tags and any vector-encoded linker of the cynomolgus HIS FLAG construct
T2 chain: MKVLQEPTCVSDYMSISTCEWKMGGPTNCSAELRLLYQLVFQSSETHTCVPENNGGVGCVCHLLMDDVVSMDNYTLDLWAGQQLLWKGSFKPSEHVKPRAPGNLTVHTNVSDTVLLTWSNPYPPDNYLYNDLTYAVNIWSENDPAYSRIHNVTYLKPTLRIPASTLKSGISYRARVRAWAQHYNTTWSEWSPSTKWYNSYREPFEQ
Experimental: as §1

[3] = molecular target: T3, human IL-13Rα2 Fc (R & D Systems, 614-IR-100) (human, UniProt Q14627 27-343, limits assumed); experiment: DELFIA epitope competition, no inhibition of biotinylated human IL-4Rα HIS FLAG binding to immobilised IgG
T3 construct: bought protein; not shown: Fc part of the bought fusion
T3 sequence (looked up): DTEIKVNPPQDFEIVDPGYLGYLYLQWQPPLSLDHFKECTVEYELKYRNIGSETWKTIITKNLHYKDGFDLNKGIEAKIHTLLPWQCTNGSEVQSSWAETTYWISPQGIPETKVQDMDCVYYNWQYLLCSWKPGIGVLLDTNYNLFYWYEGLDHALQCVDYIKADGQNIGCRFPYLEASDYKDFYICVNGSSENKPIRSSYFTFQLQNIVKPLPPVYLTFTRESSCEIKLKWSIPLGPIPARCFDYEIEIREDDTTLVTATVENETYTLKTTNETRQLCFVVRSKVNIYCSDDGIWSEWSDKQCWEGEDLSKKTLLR
Experimental: (§2) Titrations of IL-4R• species including cynomolgus IL-4R• HIS Fc (in house HEK-EBNA derived), human IL-4R• 175V Fc (AstraZeneca), human IL-4R• Fc and murine IL-4R• (both R & D Systems) were tested in each assay to establish the species cross-reactivity of the antibodies. Unbiotinylated human IL-4R• HIS FLAG was used as a positive control. Human and cynomolgus IL-4R• HIS Fc, along with Human IL-4R• 175V Fc, produced overlapping inhibition curves with […] IC₅₀ values. […] Details of the protocol are provided in the Materials and Methods section 4.6.1.
(§3) Purified IgG were adsorbed onto 96-well Maxisorp microtitre plates (Nunc) in PBS at a concentration which gave a significant signal when biotinylated human IL-4R• HIS FLAG was added at approximately its estimated KD for that particular IgG. Excess IgG was washed away with PBS-Tween (0. 1% v/v) and the wells were blocked with PBS-Marvel (3% w/v) for 1 h. […] Unbiotinylated human IL-4R• HIS FLAG was used as a positive control. […] These mixtures were then transferred onto the blocked IgG and allowed to equilibrate for 1.5 h. Unbound antigen was removed by washing with PBS-Tween (0.1% v/v), while the remaining biotinylated human IL-4R• was detected by streptavidin-Europium3+ conjugate (DELFIA• detection, PerkinElmer).

[4] = molecular target: T4, murine IL4Rα Fc (R & D Systems 530-MR-100) (murine, UniProt P16382 26-233, limits assumed); experiment: as above
T4 construct: bought protein; not shown: Fc part of the bought fusion
T4 sequence (looked up): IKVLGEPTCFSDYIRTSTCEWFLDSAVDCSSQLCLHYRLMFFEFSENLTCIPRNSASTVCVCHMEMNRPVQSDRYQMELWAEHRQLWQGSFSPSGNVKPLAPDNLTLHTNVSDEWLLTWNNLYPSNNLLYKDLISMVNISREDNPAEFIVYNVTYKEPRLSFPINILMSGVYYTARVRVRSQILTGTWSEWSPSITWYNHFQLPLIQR
Experimental: as §2, §3

[5] = molecular target: T5, Human common gamma chain (sIL-2Rγ) (R & D Systems 384-RG-050-CF) (human, UniProt P31785 23-254); experiment: as above
T5 construct: bought protein; also called common gamma chain (IL-2Rγ)
T5 sequence (looked up): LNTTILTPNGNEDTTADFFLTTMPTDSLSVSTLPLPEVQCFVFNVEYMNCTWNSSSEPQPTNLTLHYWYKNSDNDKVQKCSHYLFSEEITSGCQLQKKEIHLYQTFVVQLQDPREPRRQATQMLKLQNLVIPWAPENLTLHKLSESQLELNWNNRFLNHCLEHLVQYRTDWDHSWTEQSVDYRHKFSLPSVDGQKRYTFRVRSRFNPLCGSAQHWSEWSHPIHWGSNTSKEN
Experimental: as §2, §3

[6] = molecular target: T6, human IL-13Rα1 Fc (R & D Systems, 146-IR-100) (human, UniProt P78552 27-343, limits assumed); experiment: as above
T6 construct: bought protein; not shown: Fc part of the bought fusion
T6 sequence (looked up): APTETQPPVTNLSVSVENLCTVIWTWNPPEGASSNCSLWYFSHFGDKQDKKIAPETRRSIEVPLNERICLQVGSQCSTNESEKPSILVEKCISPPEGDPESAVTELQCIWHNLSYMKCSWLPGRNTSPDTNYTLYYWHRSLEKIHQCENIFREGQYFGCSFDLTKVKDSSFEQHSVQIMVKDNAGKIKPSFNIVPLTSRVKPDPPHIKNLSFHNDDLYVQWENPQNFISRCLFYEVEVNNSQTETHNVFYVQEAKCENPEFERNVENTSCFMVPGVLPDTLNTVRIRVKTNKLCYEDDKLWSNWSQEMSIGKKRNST
Experimental: as §2, §3

[7] = molecular target: T1, human IL-4Rα HIS FLAG (in house …); experiment: SPR (BIAcore 2000), IgG captured on Protein G', receptor as analyte, 1:1 Langmuir
Experimental: as §1

[8] = molecular target: T2, cynomolgus IL-4Rα HIS FLAG; experiment: as above
Experimental: as §1

B1: Antibody 37GL IgG (antibody, V domains shown)
VH: QVQLVQSGAEVKKPGASVKVSCKASGYAFTSYYMHWVRQAPGQGLEWMGIINPRGGSTSYAQKFQGRVTMTRDTSTSTVYMELSSLRSEDTAVYYCARGKYWMYDWGKGTLVTVSS
VL: QSVLTQPPSVSAAPGQKVTISCSGGGSSIGNSYVSWYQQLPGTAPKLLIYDNNKRPSGIPDRFSGSKSGTSATLGITGLQTGDEADYYCGTWDTSPVWEWPFGTGTKLTVL
notes: germlined IgG; also called Antibody 37 (FGL)
Kd [1]: 0.533 nM and 0.531 nM and 0.459 nM
Kd [2]: 4.67 nM and 4.34 nM and 4.41 nM
binding result [3]: no binding
binding result [4]: no binding
binding result [5]: no binding
binding result [6]: no binding
Kd [7]: 0.504 nM
koff [7]: 0.000346 s⁻¹
kon [7]: 688000 M⁻¹ s⁻¹
Kd [8]: 4.41 nM
koff [8]: 0.00108 s⁻¹
kon [8]: 244000 M⁻¹ s⁻¹

— patent US20180057596A1 (AstraZeneca / MedImmune, published 2018)
